Patent publication US12648946B2, “Combination of antibody-pyrrolobenzodiazepine derivative conjugate and PARP inhibitor” (DAIICHI SANKYO COMPANY, LIMITED, priority 2019, dated 2026)

How the values were obtained:
human claudin-6 = biological target: T1, human claudin-6 (Homo sapiens, UniProt P56747); experiment: FACS analysis of hybridoma antibodies on claudin-6 forced-expression cells; type: binding; details: human claudin-6-expressing CHO-K1 cells, cDNA transfection
T1 construct: expressed in transfected cells; host or cells: CHO-K1 cells
T1 sequence (P56747 1-220): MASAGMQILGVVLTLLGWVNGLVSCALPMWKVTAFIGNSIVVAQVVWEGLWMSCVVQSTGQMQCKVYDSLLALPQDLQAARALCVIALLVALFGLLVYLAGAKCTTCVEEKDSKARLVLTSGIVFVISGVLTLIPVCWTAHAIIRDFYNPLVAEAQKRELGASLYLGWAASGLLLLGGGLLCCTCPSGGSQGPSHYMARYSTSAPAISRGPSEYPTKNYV
Protocol: Since the antigen for the 218B1 antibody and 218C7 antibody was estimated to be claudin-6 from the mass spectrometry, forced expression analysis by cDNA transfection was carried out.

[1] = system: BxPC-3, human pancreatic cancer cell line of human CLDN6-negative cells; experiment: Internalization activity of antibodies (Mab-ZAP, CellTiter-Glo); type: cell-based; details: antibody 1 nM with Mab-ZAP 0.5 nM, 5 days
Protocol: (§1) Internalization activity of the mouse anti-CLDN6 antibodies B1 and C7 was evaluated by using the anti-mouse IgG reagent, to which a toxin that inhibits protein synthesis (saporin) had been conjugated, Mab-ZAP (Advanced Targeting Systems). In this evaluation, Mab-ZAP is incorporated into cells in a manner depending on the internalization activity of a mouse anti-CLDN6 antibody, and saporin, which inhibits protein synthesis, is released in the cells to suppress cell growth.
(§2) JEG-3 (ATCC HTB-36), a human choriocarcinoma cell line of human CLDN6-positive cells, NIH: OVCAR-3 (ATCC HTB-161), a human ovarian cancer cell line of human CLDN6-positive cells, or BxPC-3 (ATCC CRL-1687), a human pancreatic cancer cell line of human CLDN6-negative cells, was seeded in a 96-well cell culture microplate at 2×10^3 cells/well, and cultured under conditions of 37° C. and 5% CO2 overnight. On the next day, a mixed solution obtained by mixing each mouse anti-CLDN6 antibody or mouse IgG1 antibody (R&D Systems, Inc.) to a final concentration of 1 nM, with Mab-ZAP (final concentration: 0.5 nM) or AffiniPure Goat Anti-Mouse IgG, Fcγ Fragment Specific (Jackson ImmunoResearch Laboratories Inc.) (final concentration: 0.5 nM), without conjugated toxin, was added, and the cells were cultured under conditions of 37° C. and 5% CO2 for 5 days. The number of surviving cells was determined through quantification of ATP activity by using CellTiter-Glo Luminescent Cell Viability Assay (Promega Corporation).

[2] = system: JEG-3, human choriocarcinoma cell line of human CLDN6-positive cells; experiment: as above; type: cell-based; details: antibody 1 nM with Mab-ZAP 0.5 nM, 5 days
Protocol: as §1, §2

[3] = system: NIH: OVCAR-3, human ovarian cancer cell line of human CLDN6-positive cells; experiment: as above; type: cell-based; details: antibody 1 nM with Mab-ZAP 0.5 nM, 5 days
Protocol: as §1, §2

FACS reaction (human claudin-6): strong positive reaction
B1: C7: mouse anti-CLDN6 antibody from hybridoma 218C7; heavy chain variable region SEQ ID NO: 25, light chain SEQ ID NO: 23 (antibody, listed as Mus musculus, V domains shown)
VH: EVQLQQSGPELVKPGASVKISCKTSGYTFTEYTMHWVQQSHGKSLEWIGGVNPNSGDTSYNQKFKGKATLTVDKSSSTAYMELRSLTSEDSAVYYCARPGGYDVGYYAMDYWGQGTSVTVSS
VL: DIQMTQTASSLSASLGDRVTISCRASQDINNYLNWYQQKPDGTVKLLIYSTSRLHSGVPSRFSGSGSGTHYSLTITHLEQEDIATYFCQQGYPLPWTFGGGTKLEIK
modifications: amino acid sequence of variable region of C7 antibody heavy chain; amino acid sequence of variable region of C7 antibody light chain
Cell growth-suppressing effect (internalization activity) [1]: no cell growth-suppressing effect
Cell growth-suppressing effect (internalization activity) [2]: cell growth-suppressing effect
Cell growth-suppressing effect (internalization activity) [3]: cell growth-suppressing effect
